Entries after “also recorded” stand apart in the source; their conditions may differ.
Legend:
gliadin 33 mer = test: Digestion of gliadin 33 mer (RP-HPLC, ESI-MS); assay type: biochemical, wheat; conditions: 37° C., 1 mM CoCl2, pH7.2
[1] = Aminopeptidase activity assay with fluorogenic aminoacyl-AMC substrates; assay type: biochemical; conditions: for preference for aminoacyl-AMC substrates compared to Leu-AMC: Leu-AMC used as a reference; for hydrolytic activity toward Ala-AMC in comparison (%) to Leu-MCA: substrate Ala-AMC; for hydrolytic activity toward Ala-AMC in comparison (%) to Leu-MCA / hydrolytic activity toward Arg-AMC in comparison (%) to Leu-MCA / hydrolytic activity toward Asn-AMC in comparison (%) to Leu-MCA / hydrolytic activity toward Asp-AMC in comparison (%) to Leu-MCA / hydrolytic activity toward Cys-AMC in comparison (%) to Leu-MCA / hydrolytic activity toward Gln-AMC in comparison (%) to Leu-MCA / hydrolytic activity toward Glu-AMC in comparison (%) to Leu-MCA / hydrolytic activity toward Gly-AMC in comparison (%) to Leu-MCA / hydrolytic activity toward Gly-Pro-AMC in comparison (%) to Leu-MCA / hydrolytic activity toward His-AMC in comparison (%) to Leu-MCA / hydrolytic activity toward Hyp-AMC in comparison (%) to Leu-MCA / hydrolytic activity toward Ile-AMC in comparison (%) to Leu-MCA / hydrolytic activity toward Leu-AMC in comparison (%) to Leu-MCA used as a standard / hydrolytic activity toward Lys-AMC in comparison (%) to Leu-MCA / hydrolytic activity toward Met-AMC in comparison (%) to Leu-MCA / hydrolytic activity toward Phe-AMC in comparison (%) to Leu-MCA / hydrolytic activity toward Pro-AMC in comparison (%) to Leu-MCA / hydrolytic activity toward Pyr-AMC in comparison (%) to Leu-MCA / hydrolytic activity toward Ser-AMC in comparison (%) to Leu-MCA / hydrolytic activity toward Thr-AMC in comparison (%) to Leu-MCA / hydrolytic activity toward Val-AMC in comparison (%) to Leu-MCA: 5 mM, 37° C., 60 min; for hydrolytic activity toward Arg-AMC in comparison (%) to Leu-MCA: substrate Arg-AMC; for hydrolytic activity toward Asn-AMC in comparison (%) to Leu-MCA: substrate Asn-AMC; for hydrolytic activity toward Asp-AMC in comparison (%) to Leu-MCA: substrate Asp-AMC; for hydrolytic activity toward Cys-AMC in comparison (%) to Leu-MCA: substrate Cys-AMC; for hydrolytic activity toward Gln-AMC in comparison (%) to Leu-MCA: substrate Gln-AMC; for hydrolytic activity toward Glu-AMC in comparison (%) to Leu-MCA: substrate Glu-AMC; for hydrolytic activity toward Gly-AMC in comparison (%) to Leu-MCA: substrate Gly-AMC; for hydrolytic activity toward Gly-Pro-AMC in comparison (%) to Leu-MCA: substrate Gly-Pro-AMC; for hydrolytic activity toward His-AMC in comparison (%) to Leu-MCA: substrate His-AMC; for hydrolytic activity toward Hyp-AMC in comparison (%) to Leu-MCA: substrate Hyp-AMC; for hydrolytic activity toward Ile-AMC in comparison (%) to Leu-MCA: substrate Ile-AMC; for hydrolytic activity toward Leu-AMC in comparison (%) to Leu-MCA used as a standard: substrate Leu-AMC (standard); for hydrolytic activity toward Lys-AMC in comparison (%) to Leu-MCA: substrate Lys-AMC; for hydrolytic activity toward Met-AMC in comparison (%) to Leu-MCA: substrate Met-AMC; for hydrolytic activity toward Phe-AMC in comparison (%) to Leu-MCA: substrate Phe-AMC; for hydrolytic activity toward Pro-AMC in comparison (%) to Leu-MCA: substrate Pro-AMC; for hydrolytic activity toward Pyr-AMC in comparison (%) to Leu-MCA: substrate Pyr-AMC; for hydrolytic activity toward Ser-AMC in comparison (%) to Leu-MCA: substrate Ser-AMC; for hydrolytic activity toward Thr-AMC in comparison (%) to Leu-MCA: substrate Thr-AMC; for hydrolytic activity toward Val-AMC in comparison (%) to Leu-MCA: substrate Val-AMC
Protocol: (§1) Aminopeptidase activity was determined using different fluorogenic aminoacyl-4-methylcoumaryl-7-amide derivatives of peptides and the internally quenched fluorogenic substrate Lys(Abz)-Pro-Pro-pNA for specific determination of aminopeptidase P activity. Stockel et al, Adv Exp. Med. Biol. 421:31-35 (1997). All substrates were from Bachem (Bubendorf, Switzerland). Substrate stock solutions were prepared at 0.1 M according to the recommendations of the manufacturer and stored at −20° C. The reaction mixture contained a concentration of 5 mM substrate and enzyme preparation (between 56 and 2,662 ng per assay depending on the cleavage activity of each enzyme for the substrates) in 25 μl of 50 mM Tris-HCl buffer adjusted at the optimal pH for each LAP (between 7 and 8). After incubation at 37° C. for 60 min, the reaction was terminated by adding 5 μl of glacial acetic acid and the reaction mixture was diluted with 3.5 ml of water. The released 7-amino-4-methylcoumarin (AMC) was measured using a spectrofluorophotometer (Perkin Elmer LS-5 fluorometer, Zurich, Switzerland) at an excitation wavelength of 370 nm and an emission wavelength of 460 nm. A standard curve made with synthetic AMC was used to assess the released AMC. The released diprolyl-p-nitroanilide was measured at an excitation wavelength of 310 nm and an emission wavelength of 410 nm. The LA activities were expressed in mnoles of released AMC or pNA/min/μg protein.
Table 15 details the hydrolytic activity of different LAPs toward various aminoacyl-MCA comparison (%) to Leu-MCA used as a standard.

[2] = Aminopeptidase P activity assay; assay type: biochemical; conditions: substrate Lys(Abz)-Pro-Pro-pNA, 5 mM, 37° C., 60 min
Protocol: as §1

Molecule | hydrolysis of Leu-AMC [1] | preference for aminoacyl-AMC substrates compared to Leu-AMC [1] | hydrolytic activity toward Ala-AMC in comparison (%) to Leu-MCA [1] | hydrolytic activity toward Arg-AMC in comparison (%) to Leu-MCA [1] | hydrolytic activity toward Asn-AMC in comparison (%) to Leu-MCA [1] | hydrolytic activity toward Asp-AMC in comparison (%) to Leu-MCA [1] | hydrolytic activity toward Cys-AMC in comparison (%) to Leu-MCA [1] | hydrolytic activity toward Gln-AMC in comparison (%) to Leu-MCA [1] | hydrolytic activity toward Glu-AMC in comparison (%) to Leu-MCA [1] | hydrolytic activity toward Gly-AMC in comparison (%) to Leu-MCA [1] | hydrolytic activity toward Gly-Pro-AMC in comparison (%) to Leu-MCA [1] | hydrolytic activity toward His-AMC in comparison (%) to Leu-MCA [1] | hydrolytic activity toward Hyp-AMC in comparison (%) to Leu-MCA [1] | hydrolytic activity toward Ile-AMC in comparison (%) to Leu-MCA [1] | hydrolytic activity toward Leu-AMC in comparison (%) to Leu-MCA used as a standard [1] | hydrolytic activity toward Lys-AMC in comparison (%) to Leu-MCA [1] | hydrolytic activity toward Met-AMC in comparison (%) to Leu-MCA [1] | hydrolytic activity toward Phe-AMC in comparison (%) to Leu-MCA [1] | hydrolytic activity toward Pro-AMC in comparison (%) to Leu-MCA [1] | hydrolytic activity toward Pyr-AMC in comparison (%) to Leu-MCA [1] | also measured
Cytosolic porcine kidney aminopeptidase: cytosolic leucine aminopeptidase from porcine kidney, Sigma (protein, UniProt P28839 1-519, looked up) Cytosol aminopeptidase: MFLLPLPAAARVAVRQLSVRRFWGPGPDAANMTKGLVLGIYSKEKEDDAPQFTSAGENFDKLVSGKLREILNISGPPLKAGKTRTFYGLHEDFSSVVVVGLGKKGAGVDDQENWHEGKENIRAAVAAGCRQIQDLEIPSVEVDPCGDAQAAAEGAVLGLYEYDELKQKKKVVVSAKLHGSGDQEAWQRGVLFASGQNLARHLMETPANEMTPTRFAEVIEKNLKSASSKTDVHIRPKSWIEEQEMGSFLSVAKGSEEPPVFLEIHYKGSPDASDPPLVFVGKGITFDSGGISIKASANMDLMRADMGGAATICSTIVSAAKLDLPINLVGLAPLCENMPSGKANKPGDVVRAKNGKTIQVDNTDAEGRLILADALCYAHTFNPKVIINAATLTGAMDIALGSGATGVFTNSSWLWNKLFEASIETGDRVWRMPLFEHYTKQIVDCQLADVNNIGKYRSAGACTAAAFLKEFVTHPKWAHLDIAGVMTNKDEVPYLRKGMAGRPTRTLIEFLLRFSQDSA | – | – | – | – | – | – | – | – | – | – | – | – | – | – | – | – | – | – | – | – | digestion of the 33 mer (gliadin 33 mer): totally inactive
fuLAP1: A. fumigatus leucine aminopeptidase, 388 amino acid residues (SEQ ID NO: 12) (protein, listed as Aspergillus fumigatus) MKVLTAIALSAIAFTGAVAAVITQEAFLNNPRIHHDQEKYLIELAPYRTRWVTEEEKWALKLDGVNFIDITEEHNTGFYPTLHSASYVKYPPKMQYAEEVAALNKNLSKENMKANLERFTSFHTRYYKSQTGIRSATWLFDQVQRVVSESGAAEYGATVERFSHPWGQFSIIARIPGRTNKTVVLGAHQDSINLFLPSILAAPGADDDGSGTVTILEALRGLLQSDAIAKGNASNTVEFHWYSAEEGGMLGSQAIFSNYKRNRREIKAMLQQDMTGYVQGALNAGVEEAIGIMVDYVDQGLTQFLKDVVTAYCSVGYLETKCGYACSDHTSASKYGYPAAMATEAEMENTNKKIHTTDDKIKYLSFDHMLEHAKLSLGFAFELAFAPF | efficiently hydrolyzed | appreciated Arg-, Val-, and Phe-AMC; also recorded: common preference for Leu-AMC as a substrate | 4.7% | 53.9% | 29.4% | 0.8% | 5.0% | 44.9% | 0.0% | 0.8% | 5.4% | 0.8% | 3.9% | 13.2% | 100.0% | 7.7% | 116.9% | 163.7% | 12.0% | 0.0% | hydrolytic activity toward Ser-AMC in comparison (%) to Leu-MCA [1]: 10.3%; hydrolytic activity toward Thr-AMC in comparison (%) to Leu-MCA [1]: 5.1%; hydrolytic activity toward Val-AMC in comparison (%) to Leu-MCA [1]: 27.6%; hydrolytic activity toward Lys(Abz) Pro-PropNA in comparison (%) to Leu-MCA [2]: 0.0%
fuLAP2: A. fumigatus leucine aminopeptidase, 498 amino acid residues (SEQ ID NO: 9) (protein, listed as Aspergillus fumigatus) MKLLYLTSFASLAVANGPGWDWKPRVHPKVLPQMIHLWDLLQGAQQLEDFAYAYPERNRVFGGRAHEDTVNYLYRELKKTGYYDVYKQPQVHQWTRADQALTVDGQSYDATTMTYSPSVNATAPLAVVNNLGCVEADYPADLTGKIALISRGECTFATKSVLSAKAGAAAALVYNNIEGSMAGTLGGATSELGAYAPIAGISLADGQALIQMIQAGTVTANLWIDSQVENRTTYNVIAQTKGGDPNNVVALGGHTDSVEAGPGINDDGSGIISNLVVAKALTRFSVKNAVRFCFWTAEEFGLLGSNYYVNSLNATEQAKIRLYLNFDMIASPNYALMIYDGDGSAFNLTGPAGSAQIERLFEDYYTSIRKPFVPTEFNGRSDYQAFILNGIPAGGLFTGAEAIKTEEQAQLFGGQAGVALDANYHAKGDNMTNLNREAFLINSRATAFAVATYANSLDSIPPRNMTTVVKRSQLEQAMKRTPHTHTGGTGCYKDRVEQ | efficiently hydrolyzed | common preference for Leu-AMC as a substrate | 11.7% | 2.3% | 73.5% | 0.3% | 2.1% | 37.0% | 1.1% | 2.2% | 74.1% | 1.9% | 13.3% | 1.8% | 100.0% | 2.3% | 89.5% | 8.9% | 7.4% | 0.0% | hydrolytic activity toward Ser-AMC in comparison (%) to Leu-MCA [1]: 10.3%; hydrolytic activity toward Thr-AMC in comparison (%) to Leu-MCA [1]: 0.1%; hydrolytic activity toward Val-AMC in comparison (%) to Leu-MCA [1]: 0.8%; hydrolytic activity toward Lys(Abz) Pro-PropNA in comparison (%) to Leu-MCA [2]: 0.0%

Reference: patent US7943340B2, “Fungal dipeptidyl peptidase IV (DPPIV) enzyme for reagent use” (priority 2003, dated 2011)
